Laboratory results: patent US20160051704A1, “MOLECULAR IMAGING PROBES FOR LUNG CANCER INTRAOPERATIVE GUIDANCE” (H. Lee Moffitt Cancer Center and Research Institute, Inc., priority 2013, published 2016)

Experiments:
[1] = target: delta opioid receptor (δOR) on HCT-116/δOR cells (UniProt P41143); assay: TRF competitive binding against Eu-labeled DPLCE on HCT116/δOR cells
[2] = target: delta opioid receptor (δOR) on HCT-116/δOR cells (UniProt P41143); assay: LTRF competitive binding against Eu-DTPA-DPLCE (5 nM) on whole HCT-116/δOR cells; average of three experiments

Dmt-Tic-Lys(Mpr)-OH (ligand 6) (peptide)
Ki [1]: 2.5 nM

Dmt-Tic-Lys(Cy5)-OH (Cy5 labeled ligand 1) (peptide)
Ki [1]: 3 nM

Dmt-Tic-IR800 (Compound 1 of Scheme 4) (peptide)
Ki [2]: 1.43 nM
